Results from patent US20220220174A1 (BIMYO, published 2022).

molecular target: T1, recombinant BNIP3 (BCL-2 adenovirus E1B 19 kDa interacting protein-3) (mouse, UniProt O55003 1-187, limits assumed, labelled with DyLight 650 for the microarray); experiment: peptide microarray, immobilised peptide, labelled recombinant BNIP3 in solution
T1 construct: Bought recombinant protein (cusabio); also called recombinant BNIP3 (cusabio)
Procedure: (§1) Interaction studies. For protein-peptide interaction studies, peptide libraries were synthesised and immobilised on microarray slides.
(§2) Microarray. […] As labelling kit a DyLight Microscale Antibody Labeling Kit (Thermo) with label Dylight 650 was used. The assay was performed using the automated TECAN HS4800 microarray processing station. Microarrays were incubated with customer provided samples diluted in blocking buffer for 2 h at 30° C. Before each step, microarrays were washed with washing buffer. Microarrays were scanned using a high-resolution fluorescence scanner. Laser settings and applied resolution were identical for all performed measurements. The resulting images were analyzed und quantified using spot-recognition software GenePix (Molecular Devices). […] For further data evaluation, the so called MMC2 values were determined. The MMC2 equals the mean value of all three instances on the microarray except when the coefficient of variation (CV)—standard-deviation divided by the mean value—is larger 0.5. In this case the mean of the two closest values (MC2) is assigned to MMC2. All steps were performed by JPT Peptide Technologies (Berlin, Germany).

| Fluorescence intensity | Binder |
| --- | --- |
| 1040 arbitrary units | MSQSGEENLQGSWVELHFSN (Peptide immobilised on the microarray; also called BNIP3 1-20) [BNIP3-20A peptide sequence MSQSGEENLQGSWVELHFSN (BNIP3 amino acids 1-20, wild type)] |
| 4890 arbitrary units | SWVELHFSN (Peptide immobilised on the microarray; also called BNIP3 12-20) [truncated BNIP3-20A fragment SWVELHFSN] |
| 14400 arbitrary units | WVELHFSN (Peptide immobilised on the microarray; also called BNIP3 13-20) [truncated BNIP3-20A fragment WVELHFSN] |
| 2660 arbitrary units | SGEENLQGSWVELHFSN (Peptide immobilised on the microarray; also called BNIP3 4-20) [truncated BNIP3-20A fragment SGEENLQGSWVELHFSN] |

molecular target: T1, recombinant BNIP3 (BCL-2 adenovirus E1B …); experiment: as above; remark: another data set of the same source
Procedure: as §1, §2

| Binder | Fluorescence intensity |
| --- | --- |
| MSQSGEENLQGSWVELHFSN (Peptide immobilised on the microarray; also called BNIP3 1-20) [BNIP3-20A peptide sequence MSQSGEENLQGSWVELHFSN (BNIP3 amino acids 1-20, wild type)] | 1040 arbitrary units |
| MSQSGEENLQGSWVELCFSN (Peptide immobilised on a microarray slide; attachment chemistry not stated., Peptide immobilised on the microarray) [substituted BNIP3-20A peptide MSQSGEENLQGSWVELCFSN (H17 -> C)] | 6790 arbitrary units |
| MSQSGEENLQGSWVELYFSN (Peptide immobilised on a microarray slide; attachment chemistry not stated., Peptide immobilised on the microarray) [substituted BNIP3-20A peptide MSQSGEENLQGSWVELYFSN (H17 -> Y)] | 7990 arbitrary units |
| MSQSGEENLQGSWVCLHFSN (Peptide immobilised on a microarray slide; attachment chemistry not stated., Peptide immobilised on the microarray) [substituted BNIP3-20A peptide MSQSGEENLQGSWVCLHFSN (E15 -> C)] | 7150 arbitrary units |
| MSQSGEENLQGSWVELHFFN (Peptide immobilised on the microarray) [substituted BNIP3-20A peptide MSQSGEENLQGSWVELHFFN (S19 -> F)] | 15000 arbitrary units |

Next, values leading:

| Fluorescence intensity | Binder |
| --- | --- |
| 10200 arbitrary units | MSQSGEENLQYSWVELHFSN (Peptide immobilised on a microarray slide; attachment chemistry not stated., Peptide immobilised on the microarray) [substituted BNIP3-20A peptide MSQSGEENLQYSWVELHFSN (G11 -> Y)] |
| 7040 arbitrary units | MSQSGEENLQGCWVELHFSN (Peptide immobilised on a microarray slide; attachment chemistry not stated., Peptide immobilised on the microarray) [substituted BNIP3-20A peptide MSQSGEENLQGCWVELHFSN (S12 -> C)] |
| 13100 arbitrary units | MSQSGYENLQGSWVELHFSN (Peptide immobilised on a microarray slide; attachment chemistry not stated., Peptide immobilised on the microarray) [substituted BNIP3-20A peptide MSQSGYENLQGSWVELHFSN (E6 -> Y)] |
